Read-outs that look alike come from different tables or passages of the source. One block for each molecule: values may come before it.
Tests used:
[1] = biological target: Human FcγRIIA 131R (Homo sapiens, FCGR2A 131R allele) (UniProt P12318); assay: SPR
[2] = biological target: Human FcγRIIA 131H (Homo sapiens, FCGR2A 131H allele) (UniProt P12318); assay: SPR
[3] = biological target: T1, FcγRIIA on human neutrophils (Homo sapiens, endogenous on …, UniProt P12318); assay: flow cytometry on cells
[4] = biological target: T1, FcγRIIA on human neutrophils; assay: flow cytometry on cells; remark: listed apart in the source

Sequence of Human FcγRIIA 131R (Homo sapiens, FCGR2A 131R allele) (P12318 whole entry, looked up, tested part not stated): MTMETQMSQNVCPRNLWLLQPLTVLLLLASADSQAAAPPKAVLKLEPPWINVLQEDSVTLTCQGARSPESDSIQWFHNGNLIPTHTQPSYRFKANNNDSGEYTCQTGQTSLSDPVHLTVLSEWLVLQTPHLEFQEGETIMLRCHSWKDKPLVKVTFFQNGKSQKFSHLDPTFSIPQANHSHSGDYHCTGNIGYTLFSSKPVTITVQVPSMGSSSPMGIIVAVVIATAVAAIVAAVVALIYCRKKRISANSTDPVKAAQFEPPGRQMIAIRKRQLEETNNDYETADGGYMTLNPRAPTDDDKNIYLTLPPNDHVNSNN
Sequence of Human FcγRIIA 131H (Homo sapiens, FCGR2A 131H allele) (P12318 34-317): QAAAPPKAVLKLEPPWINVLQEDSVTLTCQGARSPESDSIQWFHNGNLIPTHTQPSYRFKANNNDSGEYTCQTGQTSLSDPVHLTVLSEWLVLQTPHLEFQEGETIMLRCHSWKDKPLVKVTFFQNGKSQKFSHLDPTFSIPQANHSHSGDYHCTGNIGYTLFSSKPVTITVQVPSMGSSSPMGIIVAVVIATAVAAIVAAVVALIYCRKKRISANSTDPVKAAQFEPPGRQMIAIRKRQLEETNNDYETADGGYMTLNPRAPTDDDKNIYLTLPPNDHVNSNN
T1 sequence (P12318 34-317): as above

Kd [1]: 0.22 nM
koff [1]: 0.00129 s⁻¹
kon [1]: 5.95e+06 M⁻¹ s⁻¹
Kd [2]: 0.22 nM
koff [2]: 0.000681 s⁻¹
kon [2]: 3.03e+06 M⁻¹ s⁻¹
Molecule: IV.3 Fab

Kd [1]: 0.15 nM
koff [1]: 0.000735 s⁻¹
kon [1]: 4.98e+06 M⁻¹ s⁻¹
Kd [2]: 0.13 nM
koff [2]: 0.000337 s⁻¹
Molecule: VIB9600 Fab

EC50 [3]: 3.35 nM
EC50 [4]: 0.03 nM
B1: VIB9600, humanised effector-null anti-FcγRIIA antibody (antibody, V domains shown)
VH: QVQLVQSGAEVKKPGASVKVSCKASGYTFTNYGMNWVRQAPGQRLEWMGWLNTYTGESWYPDDFKGRVTITRDTSASTAYMELSSLRSEDTAVYYCARGDYGYDDPLDYWGQGTLVTVSS
VL: DIVMTQSPLSLPVTPGEPASISCRSSKSLLHTNQNTYLHWFLQKPGQSPQLLIYRMSVLASGVPDRFSGSGSGTDFTLKISRVEAEDVGVYYCMQHLEYPLTFGQGTKLEIK

Source: article PMC6352406 (Annals of the Rheumatic Diseases, 2018)
